Measurements taken from patent US20190248881A1.
Read-outs that look alike come from different tables or passages of the source.

Experiments:
TGF-β3 [1] = target: T1, TGF-β3 (UniProt P10600); test: SPR; cycle 14, TGF-B3
T1 sequence (looked up): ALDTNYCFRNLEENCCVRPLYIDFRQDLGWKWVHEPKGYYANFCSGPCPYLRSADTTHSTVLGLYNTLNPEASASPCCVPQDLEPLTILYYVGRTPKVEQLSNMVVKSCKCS

TGF-β3 [2] = target: T1, TGF-β3; test: SPR; cycle 12, TGF-B3
TGF-β2 [3] = target: T2, TGF-β2 (UniProt P61812); test: SPR; average of cycles 10, 12, 14, TGF-B2
T2 sequence (looked up): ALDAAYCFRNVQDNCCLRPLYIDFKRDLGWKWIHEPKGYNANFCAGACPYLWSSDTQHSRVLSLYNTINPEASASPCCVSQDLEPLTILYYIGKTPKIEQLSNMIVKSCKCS

TGF-β2 [4] = target: T2, TGF-β2; test: SPR; cycle 10, TGF-B2
TGF-β3 [5] = target: T1, TGF-β3
TGF-β3 [6] = target: T1, TGF-β3; test: SPR; cycle 10, TGF-B3
TGF-β1 [7] = target: TGF-β1 (UniProt P01137); test: SPR; average of cycles 10, 12, 14, TGF-B1
Sequence of UniProt P01137 (P01137 279-390 limits assumed): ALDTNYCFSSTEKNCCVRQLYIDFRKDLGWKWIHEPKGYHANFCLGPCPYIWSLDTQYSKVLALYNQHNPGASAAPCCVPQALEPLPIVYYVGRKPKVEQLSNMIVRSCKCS

TGF-β3 [8] = target: T1, TGF-β3; test: cell-based or functional assay
TGF-β1 [9] = target: TGF-β1 (UniProt P01137); test: cell-based or functional assay
TGF-β2 [10] = target: T2, TGF-β2; test: cell-based or functional assay
TGF-β3 [11] = target: T1, TGF-β3; test: SPR; average of cycles 10, 12, 14, TGF-B3
TGF-β2 [12] = target: T2, TGF-β2; test: SPR; cycle 14, TGF-B2
TGF-β3 [13] = target: T1, TGF-β3; remark: listed apart in the source
TGF-β2 [14] = target: T2, TGF-β2
TGF-β1 [15] = target: TGF-β1 (UniProt P01137); test: SPR; cycle 14, TGF-B1
TGF-β2 [16] = target: T2, TGF-β2; test: SPR; cycle 12, TGF-B2
TGF-β1 [17] = target: TGF-β1 (UniProt P01137); test: SPR; cycle 12, TGF-B1
TGF-β1 [18] = target: TGF-β1 (UniProt P01137); test: SPR; cycle 10, TGF-B1
TGF-β2 [19] = target: T2, TGF-β2; remark: listed apart in the source
TGF-β1 [20] = target: TGF-β1 (UniProt P01137)
TGF-β3 [21] = target: T1, TGF-β3; test: cell-based or functional assay; design: unit not given beside the values
TGF-β1 [22] = target: TGF-β1 (UniProt P01137); test: cell-based or functional assay; design: unit not given beside the values
TGF-β2 [23] = target: T2, TGF-β2; test: cell-based or functional assay; design: unit not given beside the values
TGF-β1 [24] = target: TGF-β1 (UniProt P01137); remark: listed apart in the source

Kd (TGF-β3 [1]): 0.00793 nM | koff (TGF-β3 [1]): 2.75e-06 s⁻¹ | kon (TGF-β3 [1]): 346000 M⁻¹ s⁻¹ | Kd (TGF-β3 [2]): 0.016 nM | koff (TGF-β3 [2]): 5.06e-06 s⁻¹ | kon (TGF-β3 [2]): 316000 M⁻¹ s⁻¹ | Kd (TGF-β2 [3]): 0.0792 nM | koff (TGF-β2 [3]): 5.23e-05 s⁻¹ | kon (TGF-β2 [3]): 662000 M⁻¹ s⁻¹ | Kd (TGF-β2 [4]): 0.0832 nM | koff (TGF-β2 [4]): 5.17e-05 s⁻¹ | kon (TGF-β2 [4]): 621000 M⁻¹ s⁻¹ | IC50 (read off the curve) (TGF-β3 [5]): 0.02 nM | Kd (TGF-β3 [6]): 0.0108 nM | koff (TGF-β3 [6]): 2.9e-06 s⁻¹ | kon (TGF-β3 [6]): 268000 M⁻¹ s⁻¹ | Kd (TGF-β1 [7]): 0.0873 nM | koff (TGF-β1 [7]): 4.06e-05 s⁻¹ | kon (TGF-β1 [7]): 470000 M⁻¹ s⁻¹ | EC50, TGF-β isoform neutralization (TGF-β3 [8]): 0.225 nM | EC50 for neutralization of TGF-β (TGF-β3 [8]): 19 picomol/L | EC50, TGF-β isoform neutralization (TGF-β1 [9]): 0.0478 nM | EC50 for neutralization of TGF-β (TGF-β1 [9]): 164 picomol/L | EC50, TGF-β isoform neutralization (TGF-β2 [10]): 0.591 nM | EC50 for neutralization of TGF-β (TGF-β2 [10]): 382 picomol/L | Kd (TGF-β3 [11]): 0.0116 nM | koff (TGF-β3 [11]): 3.57e-06 s⁻¹ | kon (TGF-β3 [11]): 310000 M⁻¹ s⁻¹ | Kd (TGF-β2 [12]): 0.0723 nM | koff (TGF-β2 [12]): 4.98e-05 s⁻¹ | kon (TGF-β2 [12]): 690000 M⁻¹ s⁻¹ | IC50 (read off the curve) (TGF-β3 [13]): 0.03 nM | IC50 (read off the curve) (TGF-β2 [14]): 0.2 nM | Kd (TGF-β1 [15]): 0.0733 nM | koff (TGF-β1 [15]): 3.78e-05 s⁻¹ | kon (TGF-β1 [15]): 515000 M⁻¹ s⁻¹ | Kd (TGF-β2 [16]): 0.082 nM | koff (TGF-β2 [16]): 5.54e-05 s⁻¹ | kon (TGF-β2 [16]): 675000 M⁻¹ s⁻¹ | Kd (TGF-β1 [17]): 0.0873 nM | koff (TGF-β1 [17]): 4.18e-05 s⁻¹ | kon (TGF-β1 [17]): 479000 M⁻¹ s⁻¹ | Kd (TGF-β1 [18]): 0.102 nM | koff (TGF-β1 [18]): 4.23e-05 s⁻¹ | kon (TGF-β1 [18]): 416000 M⁻¹ s⁻¹ | IC50 (read off the curve) (TGF-β2 [19]): 0.4 nM | IC50 (read off the curve) (TGF-β1 [20]): 0.2 nM | IC50 for neutralization of TGF-β (TGF-β3 [21]): 0.0547 | IC50 for neutralization of TGF-β (TGF-β1 [22]): 0.0722 | IC50 for neutralization of TGF-β (TGF-β2 [23]): 0.492 | IC50 (read off the curve) (TGF-β1 [24]): 0.1 nM
B1: 1D11 (PCT-001), mouse monoclonal anti-TGF-β antibody (antibody, from another filing, V domains shown)
VH: QVQLQQSGPELVRPGASVKLSCKASGYIFITYWMNWVKQRPGQGLEWIGQIFPASGSTNYNEMFEGKATLTVDTSSSTAYMQLSSLTSEDSAVYYCARGDGNYALDAMDYWGQGTSVTVSS
VL: DIVLTQSPASLAVSLGQRATISCRASESVDSYGNSFMHWYQQKSGQPPKLLIYLASNLESGVPARFSGSGSRTDFTLTIDPVEADDAATYYCQQNNEDPLTFGAGTKLEIK
